# From paper PMC8464984, “AimR Adopts Preexisting Dimer Conformations for Specific Target Recognition in Lysis-Lysogeny Decisions of Bacillus Phage phi3T” (Biomolecules, 2021)
# Changes are numbered by the printed parent chain. In names and notes the source's numbering stands.
# B1: phi3T arbitrium peptide (SAIRGA) (peptide)
# peptide: SAIRGA
# notes: mature arbitrium peptide processed from the AimP pro-peptide (43 amino acids) of Bacillus phage phi3T; also called SAIRGA peptide; phi3T-derived peptide
# B2: AimR from Phi3T phage (phAimR), wild type (natural protein, Bacillus phage phi3T)
# chain: MIKNECEKDNQLAARLAKLAGYEKVNGFYKFVNTPEKEMENLGGLLKIVKNLFPDSEEQLLSEYFLELDPNKKCARQSVEYSDINQWDTLTDKIIINLCNSKNSTSQEWGKVYSLHRKLNKNEISLNDAIRESGKCKIKSAEMLFFSNAMLMYAYLNIGEFGLMKSTSKLLEFDDLPEGFIKESFKSRVSMLEANISLNENSLLEARQHSNRAIENSNVNRICFFAYLTIGNTLIFEDYDEAKKAYIKGQKYAKNPVHQEMLDGALCFLSNIWKKENQWVNYNSDNIKYLQLRAFYYINQGNIEEATEILDELSSRDQDENELGFYYYYKGLISQDKTDYYKSIRYFKKSDDKYFIQLPLLQLERMGADLELLNLISI
# notes: AimR transcription factor of Bacillus phage phi3T, codon-optimized cDNA (GenBank KY030782.1) in pET15b; theoretical mass printed as 44.3 kDa; 6x His tag removed with drICE protease; Dimer by SLS, AUC and SAXS; also called phi3T AimR; wild-type phAimR; source: E. coli BL21 (DE3), purified (Ni-NTA, anion exchange, size-exclusion chromatography); not shown: His6, N-terminal, cleaved
# B3: phAimR^C6S/C74S/C99S/C136S/C223S/C267S/N103C, labelled with Alexa488 and Cy5 (natural protein, Bacillus phage phi3T)
# chain: B2 chain with C6S, C74S, C99S, N103C, C136S, C223S, C267S
# modifications: Alexa Fluor 488 C5 maleimide or Cy5 maleimide on the cysteine at N103C
# notes: AimR of Bacillus phage phi3T (GenBank KY030782.1), six solvent-exposed cysteines changed to serine and N103C added for labelling; One dye per chain; the doubly labelled species is a dimer with Alexa488 on one subunit and Cy5 on the other; also called phAimR (N103C labeling site); N103C dye-labeling; source: E. coli BL21 (DE3), purified in the same way as the wild-type phAimR, dye-conjugated, …
# B4: phAimR carrying two amino acids substitutions (phAimR^Y341A/E371A) (natural protein, Bacillus phage phi3T)
# chain: B2 chain with Y341A, E371A
# notes: AimR of Bacillus phage phi3T (GenBank KY030782.1) with Y341A and E371A; also called phAim^Y341A/E371A; phAimR^Y341/E371A; source: E. coli BL21 (DE3), purified, prepared in the same way as the wild-type protein; not shown: His6, N-terminal, cleaved
# B5: phAimR: AimR from Phi3T phage (GenBank: KY030782.1), transcription factor and arbitrium peptide receptor (protein)
# chain: B2 chain
# modifications: left off: His6, N-terminal, cleaved
# notes: AimR from Phi3T phage (GenBank: KY030782.1), transcription factor and arbitrium peptide receptor
# B6: phAimR^C6S/C74S/C99S/C136S/C223S/C267S/D174C, labelled with Alexa488 and Cy5 (natural protein, Bacillus phage phi3T)
# chain: B2 chain with C6S, C74S, C99S, C136S, D174C, C223S, C267S
# modifications: Alexa Fluor 488 C5 maleimide or Cy5 maleimide on the cysteine at D174C
# notes: AimR of Bacillus phage phi3T (GenBank KY030782.1), six solvent-exposed cysteines changed to serine and D174C added for labelling; One dye per chain; the doubly labelled species is a dimer with Alexa488 on one subunit and Cy5 on the other; also called phAimR (D174C labeling site); D174C dye-labeling; source: E. coli BL21 (DE3), purified in the same way as the wild-type phAimR, dye-conjugated, …
# B7: phi3T target DNA (smFRET titration) (dsDNA)
# DNA 1: GAAATGTCCAGAAATTCAAAAATCAAAAAATAAGAACATGG
# DNA 2: CCATGTTCTTATTTTTTGATTTTTGAATTTCTGGACATTTC
# Legend:
# [1] = biological target: B3; assay: FRET or BRET; smFRET in solution; about 100 pM doubly labelled (Alexa488/Cy5) phAimR, peptide titrated; KD from the population of the enriched FRET state; 25 C, 20 mM Tris-HCl pH 7.5, 100 mM NaCl, 0.005% Tween 20, 1 mM L-ascorbic acid, 1 mM methylviologen; conditions: both partners purified
# [2] = biological target: B6; assay: as above; conditions: both partners purified
# [3] = biological target: the molecule itself; assay: SEC; Superdex 200 Increase 10/300 GL; 8.2 uM protein without peptide; 25 mM Tris-HCl pH 8.0, 300 mM NaCl
# [4] = biological target: the molecule itself; assay: SEC-MALS; static light scattering; 1.6 mg/mL protein without peptide; Superdex 200 Increase 10/300 with HELEOS multi-angle light scattering; 25 mM Tris-HCl pH 8.0, 300 mM NaCl
# [5] = biological target: the molecule itself; assay: FRET or BRET; smFRET in solution, FRET between the two subunits (one dye site per chain), no ligand; about 100 pM doubly labelled phAimR; 25 C, 20 mM Tris-HCl pH 7.5, 100 mM NaCl, 0.005% Tween 20
# [6] = biological target: the molecule itself; assay: SAXS; 100 uM protein without peptide; room temperature; 25 mM Tris-HCl pH 8.0, 300 mM NaCl
# [7] = biological target: T1, phAimR dimer (D174C-labelled) (Bacillus phage phi3T, UniProt P0DOE3, C136S/C223S/C267S/C6S/C74S/C99S/D174C); assay: smFRET titration of phAimR dimer labelled at D174C (Alexa488/Cy5); format: binding; conditions: no ligand
# T1 construct: 6xHis (N, cleaved yes); made in house; host or cells: Escherichia coli BL21 (DE3)
# Procedure: (§1) The cysteine substitutions of phAimR (phAimR^C6S/C74S/C99S/C136S/C223S/C267S/N103C or phAimR^C6S/C74S/ C99S/C136S/C223S/C267S/D174C) were generated with a standard PCR-based strategy. Proteins were prepared in the same way as the wild-type phAimR. Alexa Fluor 488 C5 maleimide (Alexa488, A10254, Thermo Fisher, Shanghai, China) and Cy5 maleimide (Cy5, PA15131, GE Healthcare, Shanghai, China) were used as fluorescence donor and acceptor, respectively. A desalting column (HiPrep 26/10, GE Healthcare, Shanghai, China) was used to exchange the protein buffer into the conjugation buffer containing 20 mM phosphate (pH 7.4) and 100 mM NaCl. The protein fraction was collected in premixed Alexa488 and Cy5 dyes. The conjugation of phAimR was performed with Alexa488 and Cy5 at a molar ratio of 1:4:4. Conjugation reaction was performed for 3 h at room temperature in the dark, and the mixture was then purified using a Source-Q column (GE Healthcare, Shanghai, China). The fractions of double-labeled protein that had absorption at 280 nm, 493 nm and 640 nm were collected for smFRET data collection.
# (§2) The laser confocal fluorescence microscope MicroTime 200 (PicoQuant, Berlin, Germany) was used for single-molecule imaging, and a pulsed interleaved excitation (PIE) scheme was used with two SPCM-AQRH detectors (Excelitas, Waltham, MA, USA) for recording fluorescence time traces at two different wavelengths. Two picosecond-pulsed diode laser heads (LDH-P-C-485 and LDH-P-C-640; PicoQuant, Berlin, Germany) were driven by a PDL 828 Sepia II driver (PicoQuant) at a repetition rate of 40 MHz, which allowed interleaved excitations for Alexa488 and Cy5. Each laser was coupled to the inverted microscope IX 73 (Olympus, Beijing, China) through a single-mode fiber, and was reflected by a dichroic mirror through a water-immersion objective (UPLSAPO 60×, N.A. 1.20). The protein sample was loaded onto a hybridization chamber (Thermo Fisher) glued to a glass coverslip (Thermo Fisher, Shanghai, China). The laser confocal point was set to about 50 μm above the coverslip. The excitation power at the back of the objective was about 100 μW for the 485 nm laser and about 35 μW for the 640 nm laser, as estimated with a power meter (PM20-FC; Thorlabs, Shanghai, China). Focused to a 100 μm pinhole, the fluorescence emission from the excited protein molecule was collected with the same objective. The donor and acceptor emissions were separated with a dichroic mirror (T635lpxr; Chroma, Xiamen, China). The donor emission was filtered with a 520/35 BP band pass, and the acceptor emission was filtered with a 690/70 BP band pass, before being focused onto the two SPCM-AQRH detectors.
# (§3) The fluorescence outputs were recorded with a TimeHarp 260 PCI board (PicoQuant, Berlin, Germany) built into a PC workstation, and the data were stored in the time-tagged time-resolved module (PicoQuant, Berlin, Germany). The photon counts including fDex/Dem, fDex/Aem and fAex/Aem were obtained by binning the photons in 1 ms bins using SymPhoTime64 software (PicoQuant, Berlin, Germany). […] With all three fluorescence time traces recorded, the signals from the donor-only or acceptor-only protein molecules were filtered out, so as to ensure that an fDex/Aem photon only arises from a doubly labeled protein. […]
# [8] = biological target: T2, phAimR dimer (N103C-labelled) (Bacillus phage phi3T, UniProt P0DOE3, C136S/C223S/C267S/C6S/C74S/C99S/N103C); assay: smFRET titration of phAimR dimer labelled at N103C (Alexa488/Cy5); format: binding; conditions: no ligand
# T2 construct: 6xHis (N, cleaved yes); made in house; host or cells: Escherichia coli BL21 (DE3)
# Procedure: as §1, §2, §3
# phAimR D174C-labeled = biological target: T3, phAimR D174C-labeled (Bacillus phage phi3T, UniProt P0DOE3 1-378, C6S;C74S;C99S;C136S;C223S;C267S;D174C); assay: smFRET titration; no peptide; EMSA: 25 mM Tris-HCl pH 8.0, 150 mM NaCl, 5 mM MgCl2, 5 mM DTT, 0.1 mg/mL BSA, 10% glycerol, room temperature 10 min, 5 nM probe, protein 0-1 (printed 'M', probably uM); smFRET titration buffer not in the material; conditions: protein: recombinant; tags: N-terminal 6xHis removed with drICE protease; Alexa488/Cy5 at C174; chain copies: 2; blunt
# T3 sequence: B2 chain with C6S, C74S, C99S, C136S, D174C, C223S, C267S
# phAimR N103C-labeled = biological target: T4, phAimR N103C-labeled (Bacillus phage phi3T, UniProt P0DOE3 1-378, C6S;C74S;C99S;C136S;C223S;C267S;N103C); assay: as above; conditions: protein: recombinant; tags: N-terminal 6xHis removed with drICE protease; Alexa488/Cy5 maleimide at C103; chain copies: 2; blunt
# T4 sequence: B2 chain with C6S, C74S, C99S, N103C, C136S, C223S, C267S
# T1 sequence (P0DOE3 whole entry C6S/C74S/C99S/C136S/D174C/C223S/C267S): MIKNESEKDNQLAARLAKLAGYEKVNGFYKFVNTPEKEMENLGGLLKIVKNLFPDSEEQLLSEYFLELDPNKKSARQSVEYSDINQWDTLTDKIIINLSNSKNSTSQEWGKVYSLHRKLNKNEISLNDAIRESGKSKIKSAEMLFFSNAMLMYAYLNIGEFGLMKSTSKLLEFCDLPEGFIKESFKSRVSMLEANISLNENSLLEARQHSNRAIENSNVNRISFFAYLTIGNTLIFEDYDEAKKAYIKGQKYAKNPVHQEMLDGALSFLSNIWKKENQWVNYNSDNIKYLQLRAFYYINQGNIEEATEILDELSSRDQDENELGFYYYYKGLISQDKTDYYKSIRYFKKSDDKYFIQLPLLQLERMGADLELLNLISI
# T2 sequence (P0DOE3 whole entry C6S/C74S/C99S/N103C/C136S/C223S/C267S): as the sequence (P0DOE3 whole entry C6S/C74S/C99S/C136S/D174C/C223S/C267S) above, with N103C, C174D counted along it
molecule,measurement,setting,value
B1,Kd,[1],41.5 ± 5.8 nM
same,Kd,[2],22.9 ± 0.5 nM
B2,stoichiometry N,[3],2
same,stoichiometry N,[4],~2
B3,stoichiometry N,[5],2
B4,stoichiometry N,[6],2
B5,FRET efficiency centre of high-FRET species (state 1),[7],~63%
same,FRET efficiency centre of low-FRET species (state 2),[7],about 35%
same,population of high-FRET species (state 1),[7],~ 61%
same,population of low-FRET species (state 2),[7],~ 39%
same,FRET efficiency centre of high-FRET species (state 2),[8],~62%
same,FRET efficiency centre of low-FRET species (state 1),[8],about 30%
same,"population of high-FRET species (Phigh, state 2)",[8],~ 42%
same,"population of low-FRET species (Plow, state 1)",[8],~ 58%
B6,stoichiometry N,[5],2
B7,Kd,phAimR D174C-labeled,1260 ± 218 nM
same,Kd,phAimR N103C-labeled,1650 ± 44.6 nM
